Laboratory results from publication PMC10350915, “Development of a New Class of CXCR4-Targeting Radioligands Based on the Endogenous Antagonist EPI-X4 for Oncological Applications” (Journal of Medicinal Chemistry, 2023).
Read-outs that look alike come from different tables or passages of the source. Square brackets hold non-standard residues; d marks the D form. Side chains are listed from the residue outwards. Ends that are not written are not given here. Peptide text beside a SMILES is read from it. * marks the point of attachment. DOTA = O=C(O)CN1CCN(CC(=O)O)CCN(CC(=O)*)CCN(CC(=O)O)CC1; Palmitoyl = CCCCCCCCCCCCCCCC(=O)*

How the values were obtained:
[1] = format: in vitro ADME; conditions: human; for fraction unbound at 60 min: plasma, plasma protein binding (PPB); for plasma protein binding (PPB): 60 min
Protocol: (§1) Figure 3 Stability of the ^177Lu ligands in human plasma at 37 °C, expressed as % of intact radioligand over time, assessed by radio-HPLC. The % of plasma protein binding (PPB) after 60 min incubation is provided in parenthesis and it is expressed as the % of radioligand in the protein fraction (pellet) versus the total activity in the plasma. TEXT PRINTED IN THE PICTURE: ^177Lu-1: PPB: 35% | ^177Lu-2: PPB: 22% | ^177Lu-5: PPB: 42% | ^177Lu-6: PPB: 38% | ^177Lu-7: PPB: 39% | ^177Lu-9: PPB: 37%
For the determination of plasma protein binding (PPB), 100 μL from the plasma incubated with the ^177Lu ligand was removed and measured in a γ-counter (total radioactivity). Protein precipitation and separation followed, as described above. The supernatant and the protein pellet were then measured in a γ-counter. The percentage of plasma protein binding was calculated as the ratio between the protein-bound radioactivity and the total radioactivity in the plasma.

[2] = format: in vitro ADME, human
Protocol: Representative radiochromatograms are provided in Figure S25 for ^177Lu-1, ^177Lu-2, and ^177Lu-7. This included ^177Lu-9 despite its fatty acid chain.
as §1
To 1 mL of fresh human plasma, previously equilibrated at 37 °C, 500 pmol (8–10 MBq) of each ^177Lu-labeled ligand was added. The mixture was incubated at 37 °C for different time points (0, 15, 30, 60, and 120 min). At each time point, a 100 μL aliquot was removed and treated with 1.5 excess (v/v) of acetonitrile, to precipitate plasma proteins, followed by centrifugation for 5 min at 3500 rpm. The supernatant was collected and the process of protein precipitation was repeated. Afterward, 100 μL from the supernatant was taken, diluted with water at a ratio of 1:10 (v/v), and injected into radio-HPLC. The radioligand (in)stability was assessed by quantifying the percentage of intact radioligand over time.

[3] = target: T1, C-X-C motif chemokine receptor 4 (CXCR4) on Ghost-CXCR4 cells (UniProt P61073 1-352); test: flow cytometry on cells; competition with APC-labelled anti-CXCR4 antibody clone 12G5 at a fixed concentration close to its KD; Ghost-CXCR4 cells, 50,000 cells/well; ligands serially diluted in PBS; 4 °C, 2 h; PBS with 1% FBS; conditions: one partner purified
T1 construct: CXCR4 stably expressed in Ghost cells (NIH HIV Reagent Program); source: Ghost cells (human osteosarcoma cell line) stably transfected with CXCR4, also expressing CD4; on cells

[4] = target: T2, C-X-C motif chemokine receptor 4 (CXCR4) on Jurkat cells (human (endogenous in Jurkat), UniProt P61073 1-352); test: flow cytometry on cells; competition with APC-labelled anti-CXCR4 antibody clone 12G5 at a fixed concentration close to its KD; Jurkat cells, 50,000 cells/well; ligands serially diluted in PBS; 4 °C, 2 h; PBS with 1% FBS; conditions: one partner purified
T2 construct: CXCR4 naturally expressed at high levels on Jurkat cells (human T lymphoblasts); source: endogenous, on Jurkat cells (clone E6-1, ATCC)

[5] = target: T1, C-X-C motif chemokine receptor 4 …; test: radioligand binding; cellular uptake (surface-bound and internalised) of 177Lu ligands (1 nM) in Ghost-CXCR4 cells, 37 °C, 15-60 min, DMEM with 5% BSA; nonspecific uptake with 100,000-fold excess of AMD3100 subtracted; conditions: one partner purified
[6] = target: T3, C-X-C motif chemokine receptor 4 (CXCR4) on Jurkat cells (human (endogenous in Jurkat), UniProt P61073 1-352)
T3 chain: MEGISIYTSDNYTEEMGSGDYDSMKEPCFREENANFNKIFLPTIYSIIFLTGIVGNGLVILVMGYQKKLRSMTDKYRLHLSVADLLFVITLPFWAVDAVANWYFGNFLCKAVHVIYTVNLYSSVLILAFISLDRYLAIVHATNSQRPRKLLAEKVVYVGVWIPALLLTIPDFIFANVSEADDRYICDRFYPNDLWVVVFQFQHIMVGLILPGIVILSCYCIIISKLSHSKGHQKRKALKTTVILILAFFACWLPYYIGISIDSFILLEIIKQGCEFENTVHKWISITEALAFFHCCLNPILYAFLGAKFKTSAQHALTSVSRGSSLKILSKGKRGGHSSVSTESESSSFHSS

Molecule | fraction unbound at 60 min [1] | time to complete degradation in human plasma [2] [min] | plasma protein binding (PPB) [1] [%] | IC50 [3] [nM] | IC50 [4] [nM] | cellular uptake (% of applied activity) [5] | IC50 [6] [nM]
CC[C@H](C)[C@H](N)C(=O)N[C@@H](CC(C)C)C(=O)N[C@@H](CCCNC(=N)N)C(=O)N[C@@H](Cc1c[nH]c2ccccc12)C(=O)N[C@@H](CO)C(=O)N[C@@H](CCCNC(=N)N)C(=O)N[C@@H](CCCCN)C(=O)N[C@@H](CC(C)C)C(=O)N1CCC[C@H]1C(=O)N[C@@H](CS)C(=O)N[C@H](C(=O)N[C@@H](CO)C(=O)N[C@@H](CCCCNC(=O)CN1CCN(CC(=O)O)CCN(CC(=O)O)CCN(CC(=O)O)CC1)C(=O)O)C(C)C [^177Lu-1, metal not drawn] | 0.65 | ≤ 15 | – | – | – | – | –
CC[C@H](C)[C@H](N)C(=O)N[C@@H](CC(C)C)C(=O)N[C@@H](CCCNC(=N)N)C(=O)N[C@@H](Cc1c[nH]c2ccccc12)C(=O)N[C@@H](CO)C(=O)N[C@@H](CCCNC(=N)N)C(=O)N[C@@H](CCCCNC(=O)CN1CCN(CC(=O)O)CCN(CC(=O)O)CCN(CC(=O)O)CC1)C(N)=O [^177Lu-5, metal not drawn] (H-ILRWSRK(DOTA)-NH2; N-terminus assumed) | 0.58 | ≤ 15 | ~40 | – | – | – | –
CC(C)C[C@@H](N)C(=O)N[C@@H](CC(C)C)C(=O)N[C@@H](CCCNC(=N)N)C(=O)N[C@@H](Cc1c[nH]c2ccccc12)C(=O)N[C@@H](CO)C(=O)N[C@@H](CCCNC(=N)N)C(=O)N[C@@H](CCCCN)C(=O)N[C@@H](CC(C)C)C(=O)N1CCC[C@H]1C(=O)N[C@@H](CS)C(=O)N[C@H](C(=O)N[C@@H](CO)C(=O)N[C@@H](CCCCNC(=O)CN1CCN(CC(=O)O)CCN(CC(=O)O)CCN(CC(=O)O)CC1)C(=O)O)C(C)C [^177Lu-6, metal not drawn] | 0.62 | ≤ 15 | ~40 | – | – | – | –
ILRWSRK(DOTA)-NH2 (N-terminus assumed; SMILES CC[C@H](C)[C@H](N)C(=O)N[C@@H](CC(C)C)C(=O)N[C@@H](CCCNC(=N)N)C(=O)N[C@@H](Cc1c[nH]c2ccccc12)C(=O)N[C@@H](CO)C(=O)N[C@@H](CCCNC(=N)N)C(=O)N[C@@H](CCCCNC(=O)CN1CCN(CC(=O)O)CCN(CC(=O)O)CCN(CC(=O)O)CC1)C(N)=O, shortest truncated JM#21 derivative; DOTA on its own K7; source: synthetic peptide (Fmoc solid phase synthesis, RP-HPLC purified)) [ligand-5] | – | – | – | 424 | 120 | – | –
LVRYTKKVPQVSTPTL (16-mer fragment of human serum albumin; also called wild-type EPI-X4; source: synthetic peptide) [EPI-X4 (endogenous peptide inhibitor of CXCR4)] | – | – | – | 4540 | 1780 | – | –
ILRWSRKLPCVSK(DOTA) (source: synthetic peptide (Fmoc solid phase synthesis, RP-HPLC purified)) [ligand-1] | – | – | – | 254 | 303 | – | –
ILRWSRKLPSVSK(DOTA) (as ligand-1 with serine instead of cysteine at position 10; source: synthetic peptide (Fmoc solid phase synthesis, RP-HPLC purified)) [ligand-2] | – | – | – | 258 | 172 | – | –
[dL]LRWSRKLPCVSK(DOTA) (as ligand-1 with isoleucine 1 substituted by D-leucine; source: synthetic peptide (Fmoc solid phase synthesis, RP-HPLC purified)) [ligand-6] | – | – | – | 747 | 428 | – | –
[dL]LRWSRKLPCVSK(DOTA) (also: DOTA complexed with natLu, natLu and 177Lu complexes are written as one molecule; they differ only in the isotope; also called ^177Lu-6; Lu complex of ligand-6 (monomer); source: synthetic peptide, complexed with natLuCl3, monomer isolated by semipreparative RP-HPLC; ^177Lu form labelled with 177LuCl3 in the presence of DTT) [^natLu-6] | – | – | – | 1010 | 465 | ~1 % of applied activity | –
ILRWSRKLPSVSK(DOTA) (also: natLu complexed by DOTA, natLu and 177Lu complexes are written as one molecule; they differ only in the isotope; also called ^177Lu-2; Lu complex of ligand-2; source: synthetic peptide, complexed with natLuCl3; ^177Lu form labelled with 177LuCl3) [^natLu-2] | – | – | – | – | 49 | ~1 % of applied activity | 65
ILRWSRKLPCVS (activity-optimised, truncated 12-mer derivative of EPI-X4 (rational design); source: synthetic peptide) [EPI-X4 JM#21] | – | – | – | 183 | 136 | – | –
ILRWSRKLPCVSK(DOTA) (also: natLu complexed by DOTA, natLu and 177Lu complexes are written as one molecule; they differ only in the isotope; also called ^177Lu-1; Lu complex of ligand-1 (monomer); source: synthetic peptide, complexed with natLuCl3, monomer isolated by semipreparative RP-HPLC; ^177Lu form labelled with 177LuCl3 in the presence of DTT) [^natLu-1] | – | – | – | 278 | 208 | ~1 % of applied activity | 15
IVRWSKK(Palmitoyl)VPCSK(DOTA) (also: natLu complexed by DOTA) [^natLu-8] | – | – | – | 30 | 18 | – | –
ILRWSRK(DOTA)-NH2 (also: natLu complexed by DOTA, natLu and 177Lu complexes are written as one molecule; they differ only in the isotope; also called ^177Lu-5; Lu complex of ligand-5; source: synthetic peptide, complexed with natLuCl3; ^177Lu form labelled with 177LuCl3) [^natLu-5] | – | – | – | 197 | 113 | ~1 % of applied activity | 104
[dI]LRWSRKK(DOTA)-NH2 (N-terminus assumed; SMILES CC[C@@H](C)[C@@H](N)C(=O)N[C@@H](CC(C)C)C(=O)N[C@@H](CCCNC(=N)N)C(=O)N[C@@H](Cc1c[nH]c2ccccc12)C(=O)N[C@@H](CO)C(=O)N[C@@H](CCCNC(=N)N)C(=O)N[C@@H](CCCCN)C(=O)N[C@@H](CCCCNC(=O)CN1CCN(CC(=O)O)CCN(CC(=O)O)CCN(CC(=O)O)CC1)C(N)=O, as ligand-4 with isoleucine 1 substituted by D-isoleucine; also called DOTA conjugate of JM#173; source: synthetic peptide (Fmoc solid phase synthesis, RP-HPLC purified)) [ligand-7] | – | – | – | 570 | 433 | – | –
[dI]LRWSRKK(DOTA)-NH2 (also: natLu complexed by DOTA, natLu and 177Lu complexes are written as one molecule; they differ only in the isotope; also called ^177Lu-7; Lu complex of ligand-7; source: synthetic peptide, complexed with natLuCl3; ^177Lu form labelled with 177LuCl3) [^natLu-7] | – | – | – | 481 | 435 | – | 272
ILRWSRKK(DOTA)-NH2 (truncated JM#21 derivative with added C-terminal K(DOTA)-NH2; source: synthetic peptide (Fmoc solid phase synthesis, RP-HPLC purified)) [ligand-4] | – | – | – | 295 | 161 | – | –
[dL]LRWSRK([Glu-Palmitoyl])K(DOTA)-NH2 (also: natLu complexed by DOTA, natLu and 177Lu complexes are written as one molecule; they differ only in the isotope; also called ^177Lu-9; Lu complex of ligand-9; source: synthetic peptide, complexed with natLuCl3; ^177Lu form labelled with 177LuCl3) [^natLu-9] | – | – | – | 6 | 4 | – | 20
[dL]LRWSRK([Glu-Palmitoyl])K(DOTA)-NH2 (main chain of 8 residues; source: synthetic peptide (Fmoc solid phase synthesis, RP-HPLC purified)) [ligand-9] | – | – | – | 6 | 13 | – | –
ILRWSRKLPK(DOTA)-NH2 (N-terminus assumed; SMILES CC[C@H](C)[C@H](N)C(=O)N[C@@H](CC(C)C)C(=O)N[C@@H](CCCNC(=N)N)C(=O)N[C@@H](Cc1c[nH]c2ccccc12)C(=O)N[C@@H](CO)C(=O)N[C@@H](CCCNC(=N)N)C(=O)N[C@@H](CCCCN)C(=O)N[C@@H](CC(C)C)C(=O)N1CCC[C@H]1C(=O)N[C@@H](CCCCNC(=O)CN1CCN(CC(=O)O)CCN(CC(=O)O)CCN(CC(=O)O)CC1)C(N)=O, truncated JM#21 derivative with added C-terminal K(DOTA)-NH2; source: synthetic peptide (Fmoc solid phase synthesis, RP-HPLC purified)) [ligand-3] | – | – | – | 98 | 45 | – | –
